This data set can be described thus: protein stability index of a GFP-peptide fusion (GPS, HEK-293T) (PSI 1-6); higher = more stable. Particulars: c terminus: a fixed tail appended.

36 sequences from the supplement of paper PMC10567573 can be followed below.

± gives the standard deviation.
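Note: 24-mer peptide tiles fused after GFP, lentivirally expressed, FACS-sorted into six equal bins by GFP/DsRed ratio, decoded by Illumina sequencing, PSI is the read-weighted mean bin number.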

Consider TIEELQQKILCAKAENARLVVNID [KRT34], for which the protein stability index reads like this: (treatment: DMSO) 3.37 ± 0.31; (treatment: MLN4924 1 uM, 8 h) 3.41 ± 0.48.

As to TIVNFPITNVDLREYLSEEVQAVH [USP39], the protein stability index by setting is: (treatment: DMSO) 2.92 ± 0.18; (treatment: MLN4924 1 uM, 8 h) 3.41 ± 0.41.

Regarding TKLPENQAIQMRLVDVACKHLTDT [INTS4], the protein stability index turned out to be 3.41 ± 0.11 (treatment: DMSO) and 3.58 ± 0.069 (treatment: MLN4924 1 uM, 8 h).

As for TKRDSFLKRLYRAPIDWIEEYTTG [ALG2], the protein stability index runs as follows: (treatment: DMSO) 2.18 ± 0.54; (treatment: MLN4924 1 uM, 8 h) 2.23 ± 0.4.

As to TLEKCEKVKTMEVTSVSIELEKNF [TRIM39], the protein stability index was 4.16 ± 0.21 (treatment: DMSO) and 4.15 ± 0.23 (treatment: MLN4924 1 uM, 8 h).

TLGYMPTEMELLEVSQHIKMRMGG [CABP4]: the protein stability index reads like this: (treatment: DMSO) 2.96 ± 0.18; (treatment: MLN4924 1 uM, 8 h) 2.94 ± 0.54.

As to TNSDTPTSFNHMDSDKLSGLWSRI [TOR1AIP2], the protein stability index (treatment: DMSO) stood at 3.21 ± 0.21 and the protein stability index (treatment: MLN4924 1 uM, 8 h) was determined as 3.1 ± 0.39.

For the sequence TPLTEGSEDLDGHSDPEESFARDL [RETREG3], the protein stability index runs as follows: (treatment: DMSO) 5.51 ± 0.18; (treatment: MLN4924 1 uM, 8 h) 5.524 ± 0.053.

As to TPVDMWSVGCIFAEMFRRKPLFCG [CDK4], the protein stability index reads like this: (treatment: DMSO) 2.98 ± 0.97; (treatment: MLN4924 1 uM, 8 h) 2.64 ± 0.61.

For TQESTFQELCEGLLEESDGEGEPG [NOP53], the protein stability index was determined as 5.59 ± 0.22 (treatment: DMSO) and 5.51 ± 0.22 (treatment: MLN4924 1 uM, 8 h).

In the case of TRDGFKLVMASLYHIYVALEEEIE [HMOX1], the protein stability index was determined as 2.15 ± 0.52 (treatment: DMSO) and 2.56 ± 0.51 (treatment: MLN4924 1 uM, 8 h).

As to TRLFHDSAVTSVRILQDEQYLMAS [DCAF4], the protein stability index reads like this: (treatment: DMSO) 2.76 ± 0.18; (treatment: MLN4924 1 uM, 8 h) 2.88 ± 0.25.

Turning to TRVPRAAIVFTDGRAQDDVSEWAS [MATN2], the protein stability index was 4.34 ± 0.36 (treatment: DMSO) and 4.48 ± 0.45 (treatment: MLN4924 1 uM, 8 h).

As for TSILSRLPPEALTAPSGGQWGAEP [RNF208], the protein stability index stood at 3.94 ± 0.14 (treatment: DMSO) and 4.05 ± 0.11 (treatment: MLN4924 1 uM, 8 h).

TSYCELLQNKVPLLGSSTACIVVL [PPTC7] returned a protein stability index (treatment: DMSO) of 2.8 ± 0.1 and a protein stability index (treatment: MLN4924 1 uM, 8 h) of 2.55 ± 0.09.

Take TTDPDLILEVLRSSPMVQVDEKGE [LARP4]: the protein stability index is, setting by setting: (treatment: DMSO) 4.61 ± 0.32; (treatment: MLN4924 1 uM, 8 h) 4.73 ± 0.24.

The sequence TTKCVRQYEGHVNEYAYLPLHVHE [DCAF4] showed a protein stability index (treatment: DMSO) of 2.92 ± 0.39 and a protein stability index (treatment: MLN4924 1 uM, 8 h) of 3.17 ± 0.2.

As to TTSEEAVGGATPDQTTSEETVGGA [HDAC6], the protein stability index was 5.5 ± 0.32 (treatment: DMSO) and 5.57 ± 0.27 (treatment: MLN4924 1 uM, 8 h).

As to TTSTLASSLPGHAAKTLPGGAGKG [EHMT1], the protein stability index amounted to 4.77 ± 0.15 (treatment: DMSO) and 5.28 ± 0.16 (treatment: MLN4924 1 uM, 8 h).

Consider TTVVVFVASMVLGECRQMSSSSQI [CLCN6], for which the protein stability index worked out at 3 ± 0.49 (treatment: DMSO) and 3.22 ± 0.24 (treatment: MLN4924 1 uM, 8 h).

For TVQIICNTGYRLQNNENNISCVER [CFHR2], the protein stability index is, setting by setting: (treatment: DMSO) 2.44 ± 0.4; (treatment: MLN4924 1 uM, 8 h) 2.64 ± 0.25.

Turning to TYEVRMRTNLPIFKLKESCVRRRY [SNX12], the protein stability index reads like this: (treatment: DMSO) 2.6 ± 0.15; (treatment: MLN4924 1 uM, 8 h) 2.54 ± 0.23.

For VAFVCAFSEALAEGAVKMGMPSSL [PYCR3], the protein stability index stood at 3.46 ± 0.41 (treatment: DMSO) and 2.42 ± 0.36 (treatment: MLN4924 1 uM, 8 h).

In the case of VAKCLIGVNYPKPMVNHAEASRLN [CRY1], the protein stability index was 2.5 ± 0.14 (treatment: DMSO) and 2.46 ± 0.38 (treatment: MLN4924 1 uM, 8 h).

In the case of VAVQEQEIARREKELEARVRKPAE [FLOT1], the protein stability index reads like this: (treatment: DMSO) 5.44 ± 0.42; (treatment: MLN4924 1 uM, 8 h) 5.31 ± 0.17.

Consider VCIVQKNDTKKMYAMKYMNKQKCV [STK32A], for which the protein stability index is, setting by setting: (treatment: DMSO) 2.21 ± 0.11; (treatment: MLN4924 1 uM, 8 h) 2.5 ± 0.45.

As to VCYQYPGYRGYQYILECDHHGGDY [CRYBA1], the protein stability index is 2.35 ± 0.4 (treatment: DMSO) and 2.08 ± 0.18 (treatment: MLN4924 1 uM, 8 h).

Sequence VDEAAAESPSFLSLRKGASLSNGQ [NCK2] gave a protein stability index (treatment: DMSO) of 4.83 ± 0.14 and a protein stability index (treatment: MLN4924 1 uM, 8 h) of 5.08 ± 0.23.

As for VDSHHEYPAMTFYSPAVMNYSIPS [ESR2], the protein stability index reads like this: (treatment: DMSO) 2.8 ± 0.18; (treatment: MLN4924 1 uM, 8 h) 2.89 ± 0.24.

On to VEYFQQSAVAMYMLYEKQKQQNVA [ZBED1], for which the protein stability index is, setting by setting: (treatment: DMSO) 2.4 ± 0.18; (treatment: MLN4924 1 uM, 8 h) 2.14 ± 0.28.

With VFLHLLLLFKLVAPVTFRHHRYDD [CPN1], the protein stability index (treatment: DMSO) is 3.12 ± 0.13 and the protein stability index (treatment: MLN4924 1 uM, 8 h) came out at 3.14 ± 0.23.

As for VFSQMIHLNETVKAPDIECVLRCS [FEM1B], the protein stability index by setting is: (treatment: DMSO) 2.13 ± 0.36; (treatment: MLN4924 1 uM, 8 h) 2.11 ± 0.35.

Regarding VGLAVVNGQLMAVGGFDGTTYLKT [KLHL20], the protein stability index is, setting by setting: (treatment: DMSO) 2.69 ± 0.54; (treatment: MLN4924 1 uM, 8 h) 2.23 ± 0.19.

Consider VGTMVGADILAGREDNSGSDVLIG [SLC35F2], for which the protein stability index turned out to be 4.79 ± 0.26 (treatment: DMSO) and 4.55 ± 0.22 (treatment: MLN4924 1 uM, 8 h).

For VHTEFTLRNFNSAKDMKKAVAHMK [MATN2], the protein stability index reads like this: (treatment: DMSO) 3.95 ± 0.17; (treatment: MLN4924 1 uM, 8 h) 4.03 ± 0.22.

In the case of VHYAKVQLRFQHSQDVSDCYLELF [PLEKHN1], the protein stability index is 2.88 ± 0.82 (treatment: DMSO) and 2.76 ± 0.52 (treatment: MLN4924 1 uM, 8 h).
